According to publication PMC7199855, “GRAF2, WDR44, and MICAL1 mediate Rab8/10/11–dependent export of E-cadherin, MMP14, and CFTR ΔF508” (The Journal of Cell Biology, 2020):

B1: myc-MICAL1 [human] / GRAF1b-GFP [human] (parent complex)
chain 1: MASPTSTNPAHAHFESFLQAQLCQDVLSSFQELCGALGLEPGGGLPQYHKIKDQLNYWSAKSLWTKLDKRAGQPVYQQGRACTSTKCLVVGAGPCGLRVAVELALLGARVVLVEKRTKFSRHNVLHLWPFTIHDLRALGAKKFYGRFCTGTLDHISIRQLQLLLLKVALLLGVEIHWGVTFTGLQPPPRKGSGWRAQLQPNPPAQLANYEFDVLISAAGGKFVPEGFKVREMRGKLAIGITANFVNGRTVEETQVPEISGVARIYNQSFFQSLLKATGIDLENIVYYKDDTHYFVMTAKKQCLLRLGVLRQDWPDTNRLLGSANVVPEALQRFTRAAADFATHGKLGKLEFAQDAHGQPDVSAFDFTSMMRAESSARVQEKHGARLLLGLVGDCLVEPFWPLGTGVARGFLAAFDAAWMVKRWAEGAESLEVLAERESLYQLLSQTSPENMHRNVAQYGLDPATRYPNLNLRAVTPNQVRDLYDVLAKEPVQRNNDKTDTGMPATGSAGTQEELLRWCQEQTAGYPGVHVSDLSSSWADGLALCALVYRLQPGLLEPSELQGLGALEATAWALKVAENELGITPVVSAQAVVAGSDPLGLIAYLSHFHSAFKSMAHSPGPVSQASPGTSSAVLFLSKLQRTLQRSRAKENAEDAGGKKLRLEMEAETPSTEVPPDPEPGVPLTPPSQHQEAGAGDLCALCGEHLYVLERLCVNGHFFHRSCFRCHTCEATLWPGGYEQHPGDGHFYCLQHLPQTDHKAEGSDRGPESPELPTPSENSMPPGLSTPTASQEGAGPVPDPSQPTRRQIRLSSPERQRLSSLNLTPDPEMEPPPKPPRSCSALARHALESSFVGWGLPVQSPQALVAMEKEEKESPFSSEEEEEDVPLDSDVEQALQTFAKTSGTMNNYPTWRRTLLRRAKEEEMKRFCKAQTIQRRLNEIEAALRELEAEGVKLELALRRQSSSPEQQKKLWVGQLLQLVDKKNSLVAEEAELMITVQELNLEEKQWQLDQELRGYMNREENLKTAADRQAEDQVLRKLVDLVNQRDALIRFQEERRLSELALGTGAQG
chain 2: MGLPALEFSDCCLDSPHFRETLKSHEAELDKTNKFIKELIKDGKSLISALKNLSSAKRKFADSLNEFKFQCIGDAETDDEMCIARSLQEFATVLRNLEDERIRMIENASEVLITPLEKFRKEQIGAAKEAKKKYDKETEKYCGILEKHLNLSSKKKESQLQEADSQVDLVRQHFYEVSLEYVFKVQEVQERKMFEFVEPLLAFLQGLFTFYHHGYELAKDFGDFKTQLTISIQNTRNRFEGTRSEVESLMKKMKENPLEHKTISPYTMEGYLYVQEKRHFGTSWVKHYCTYQRDSKQITMVPFDQKSGGKGGEDESVILKSCTRRKTDSIEKRFCFDVEAVDRPGVITMQALSEEDRRLWMEAMDGREPVYNSNKDSQSEGTAQLDSIGFSIIRKCIHAVETRGINEQGLYRIVGVNSRVQKLLSVLMDPKTASETETDICAEWEIKTITSALKTYLRMLPGPLMMYQFQRSFIKAAKLENQESRVSEIHSLVHRLPEKNRQMLQLLMNHLANVANNHKQNLMTVANLGVVFGPTLLRPQEETVAAIMDIKFQNIVIEILIENHEKIFNTVPDMPLTNAQLHLSRKKSSDSKPPSCSERPLTLFHTVQSTEKQEQRNSIINSSLESVSSNPNSILNSSSSLQPNMNSSDPDLAVVKPTRPNSLPPNPSPTSPLSPSWPMFSAPSSPMPTSSTSSDSSPVSTPFRKAKALYACKAEHDSELSFTAGTVFDNVHPSQEPGWLEGTLNGKTGLIPENYVEFL
B2: GFP-VAPA [human] / myc-WDR44 [human] (parent complex)
chain 1: MASASGAMAKHEQILVLDPPTDLKFKGPFTDVVTTNLKLRNPSDRKVCFKVKTTAPRRYCVRPNSGIIDPGSTVTVSVMLQPFDYDPNEKSKHKFMVQTIFAPPNTSDMEAVWKEAKPDELMDSKLRCVFEMPNENDKLNDMEPSKAVPLNASKQDGPMPKPHSVSLNDTETRKLMEECKRLQGEMMKLSEENRHLRDEGLRLRKVAHSDKPGSTSTASFRDNVTSPLPSLLVVIAAIFIGFFLGKFIL
chain 2: MASESDTEEFYDAPEDVHLGGGYPVGSPGKVGLSTFKETENTAYKVGNESPVQELKQDVSKKIIESIIEESQKVLQLEDDSLDSKGKELSDQATASPIVARTDLSNIPGLLAIDQVLPEESQKAESQNTFEETELELKKCFPSDETCEKPVDETTKLTQTSSTEQLNVLETETEVLNKEAVEVKGGGDVLEPVSSDSLSTKDFAAVEEVAPAKPPRHLTPEPDIVASTKKPVPARPPPPTNFPPPRPPPPSRPAPPPRKRKSELEFETLKTPDIDVPKENITSDSLLTASMASESTVKDSQPSLDLASATSGDKIVTAQENGKAPDGQTVAGEVMGPQRPRSNSGRELTDEEILASVMIKNLDTGEEIPLSLAEEKLPTGINPLTLHIMRRTKEYVSNDAAQSDDEEKLQSQPTDTDGGRLKQKTTQLKKFLGKSVKRAKHLAEEYGERAINKVKSVRDEVFHTDQDDPSSSDDEGMPYTRPVKFKAAHGFKGPYDFDQIKVVQDLSGEHMGAVWTMKFSHCGRLLASAGQDNVVRIWALKNAFDYFNNMRMKYNTEGRVSPSPSQESLSSSKSDTDTGVCSGTDEDPDDKNAPFRQRPFCKYKGHTADLLDLSWSKNYFLLSSSMDKTVRLWHISRRECLCCFQHIDFVTAIAFHPRDDRYFLSGSLDGKLRLWNIPDKKVALWNEVDGQTKLITAANFCQNGKYAVIGTYDGRCIFYDTEHLKYHTQIHVRSTRGRNKVGRKITGIEPLPGENKILVTSNDSRIRLYDLRDLSLSMKYKGYVNSSSQIKASFSHDFTYLVSGSEDKYVYIWSTYHDLSKFTSVRRDRNDFWEGIKAHNAVVTSAIFAPNPSLMLSLDVQSEKSEGNEKSEDAEVLDATPSGIMKTDNTEVLLSADFTGAIKVFVNKRKNVS
B3: myc-MICAL1 [human] / GRAF2-GFP [human] (parent complex)
chain 1: B1 chain 1
chain 2: MGLQPLEFSDCYLDSPWFRERIRAHEAELERTNKFIKELIKDGKNLIAATKSLSVAQRKFAHSLRDFKFEFIGDAVTDDERCIDASLREFSNFLKNLEEQREIMALSVTETLIKPLEKFRKEQLGAVKEEKKKFDKETEKNYSLIDKHLNLSAKKKDSHLQEADIQVEQNRQHFYELSLEYVCKLQEIQERKKFEFVEPMLSFFQGMFTFYHQGHELAKDFNHYKMELQINIQNTRNRFEGTRSEVEELMNKIRQNPKDHKRASQFTAEGYLYVQEKRPAPFGSSWVKHYCMYRKAAKKFNMIPFEHRSGGKLGDGEVFFLKECTKRHTDSIDRRFCFDIEAADRPGVSLTMQAFSEEERKQWLEALGGKEALSHSFNTAIIPRPEGNAQLDKMGFTIIRKCISAVETRGINDQGLYRVVGVSSKVQRLLSMLMDVKTCNEVDLENSADWEVKTITSALKQYLRSLPEPLMTYELHGDFIVPAKSGSPESRVNAIHFLVHKLPEKNKEMLDILVKHLTNVSNHSKQNLMTVANLGVVFGPTLMRPQEETVAALMDLKFQNIVVEILIENHEKIFRTPPDTTFPEPTCLSASPPNAPPRQSKRQGQRTKRPVAVYNLCLELEDGDNPYPSKEDTPTSSLDSLSSPSPVTTAVPGPPGPDKNHLLADGGSFGDWASTIPGQTRSSMVQWLNPQSPTTTSSNSAVTPLSPGSSPFPFSPPATVADKPPESIRSRKARAVYPCEAEHSSELSFEIGAIFEDVQTSREPGWLEGTLNGKRGLIPQNYVKLL

Variants of: B1
Test: co-immunoprecipitation (IP with α-myc-coated beads, quantified western blot); transfected 293T cells; n = 3–5; means ± SEM; parent: 1; read off a plot

Row | ratio to parent | Variant
1 | ~0.05 | chain 1 K832A

Variants of: B2
Test: co-immunoprecipitation (IP with α-GFP, quantified western blot); transfected 293T cells; n = 3 or 4; means ± SEM; parent: 1; read off a plot

Row | ratio to parent | Variant
2 | ~0.4 | chain 1 K94D, chain 1 M96D

Variants of: B3
Test: co-immunoprecipitation (IP with α-myc-coated beads, quantified western blot); transfected 293T cells; n = 3 or 4; means ± SEM; parent: 1; read off a plot

Row | ratio to parent | Variant
3 | ~0.03 | chain 1 K832A
